For the test, the target named is non-specific polyclonal IgG. Kind of test: non-specific polyclonal IgG (2 ug/ml) added as bait, protein A Sepharose pull-down, deoxycholate release, HGF ELISA. Background: An ELISA detects its analyte on a solid surface through an enzyme-linked reagent.

For the substance “Hepatocyte Growth Factor (HGF) in human epicardial-derived cell-conditioned medium (EPI CdM) (ligand)”, the HGF recovered from beads after pull-down with IgG amounted to 2.8 ng/mL.
